Experiment [1] concerns the target FovPG1 (Fusarium oxysporum f. sp. vasinfectum polygalacturonase 1) (Fusarium oxysporum f. sp. vasinfectum).
Experiment [2] has as its target VdPG1 (Verticillium dahliae polygalacturonase 1) (Verticillium dahliae).
The target is the same in experiment [3]. The source holds these as a separate data set.

Results on 1 substance are retold here after PMC5228132.

Substance “GhPGIP1 (cotton polygalacturonase-inhibiting protein 1) (natural protein)” had a percent inhibition of PG activity by 3.24 nM GhPGIP1 over pH 7.0-10.0; 23.79% at pH 8.0 and 29.61% at pH 9.0 in experiment [1] of 29.6%. The substance further showed a percent inhibition of PG activity by 3.24 nM GhPGIP1 over pH 3.5-5.0; 26.88% at pH 4.2 and 31.45% at pH 4.8 in experiment [2] of 31.4%. Further, the IC50 of inhibition; the text gives it for VdPG1, while the caption and footnote of Table 1 give it as antifungal activity on the growth of V. dahliae (eight doses of purified GhPGIP1) in experiment [3] is 44.4 µg/mL.
